Laboratory results published in patent US20220168347A1 (published 2022).

Target: T1, gp100 (gp100-intron4) peptide on HLA-A*24:02 (human)
T1 peptide: VYFFLPDHL
Test: multimer staining

binding result: recognises
B1: A*24:02/gp100-intron4 TCR (TCR, V domains shown)
Valpha: KQEVTQIPAALSVPEGENLVLNCSFTDSAIYNLQWFRQDPGKGLTSLLLIQSSQREQTSGRLNASLDKSSGRSTLYIAASQPGDSATYLCAVATDSWGKLQFGAGTQVVVTP
Vbeta: AAGVIQSPRHLIKEKRETATLKCYPIPRHDTVYWYQQGPGQDPQFLISFYEKMQSDKGSIPDRFSAQQFSDYHSELNMSSLELGDSALYFCASSLLPEGTGRVSGYTFGSGTRLTVV
